# Columns and labels:
# A375 cells = experiment: Cytotoxicity evaluation on A375 cells; format: cell-based, human; conditions: FIG. 1
# Text: (§1) The human cancer cell lines HL60, Namalwa, A-375, COLO205 and Ramos were obtained from the American Type Culture Collection (ATCC). Kara is a murine tumor cell line that has been stably transfected with the human CD33 antigen.
# [1] = tested on: COLO 205 (CanAg antigen-positive) cancer cells; experiment: Cytotoxicity evaluation on COLO 205 cells; format: cell-based, human; conditions: COLO 205 (CanAg antigen-positive) cells, FIG. 1
# Text: as §1
molecule,measurement,setting,value
"huC242-SSNPB-leptomycin of example 6 (conjugate, chains of the INN, looked up, SSNPB-leptomycin conjugate) VH: QVQLVQSGAEVKKPGETVKISCKASDYTFTYYGMNWVKQAPGQGLKWMGWIDTTTGEPTYAQKFQGRIAFSLETSASTAYLQIKSLKSEDTATYFCARRGPYNWYFDVWGQGTTVTVSS VL: DIVMTQSPLSVPVTPGEPVSISCRSSKSLLHSNGNTYLYWFLQRPGQSPQLLIYRMSNLVSGVPDRFSGSGSGTAFTLRISRVEAEDVGVYYCLQHLEYPFTFGPGTKLELK",IC50,A375 cells,> 5 nM
same,IC50,[1],0.13 nM

# — patent US7816543B2, “Leptomycin derivatives” (Sanofi-Aventis, priority 2006, dated 2010)
